In article PMC8458377 (Nature Communications, 2021):
Residue numbers refer to the chain shown, from its start. Names may count otherwise.

Tests used:
[1] = molecular target: the molecule itself; assay: SEC-MALLS; 100-400 µM loaded in 100 µL on Superdex INCREASE 200 10/300 GL in Acetate Buffer (50 mM sodium acetate, 300 mM NaCl, 1 mM TCEP pH 5.0), 1.0 mL/min
[2] = molecular target: the molecule itself; assay: AUC; multispeed sedimentation equilibrium (18,000, 21,000, 26,000 rpm), Acetate Buffer, global fit to a monomer-dimer-tetramer model; constant of: dimer to monomers (KD1-2)
[3] = molecular target: the molecule itself; assay: AUC; multispeed sedimentation equilibrium (18,000, 21,000, 26,000 rpm), Acetate Buffer, global fit to a monomer-dimer-tetramer model; constant of: tetramer to dimers (KD2-4)
[4] = molecular target: the molecule itself; assay: AUC; sedimentation velocity, 50,000 rpm, 293 K, Acetate Buffer, interference data, 30-181 µM, C(S) analysis
[5] = molecular target: the molecule itself; assay: crystal structure; sitting drop vapour diffusion at 18 °C; spacegroup P6_(5)22, three copies in the asymmetric unit arranged as two dimer interfaces

B1: p18m-I269F (p18m_AUG2-I269F) (domain or fragment, S. cerevisiae, UniProt P08405 259-355, looked up)
chain: MQSDTQEANDFVTLANLQYNGSTPADAFETKVTNIIDRLNNNGIHINNKVACQLIMRGLSGEYKFLRYTRHRHLNMTVAELFLDIHAIYEEQQGSRN
notes: S. cerevisiae Ty1A (Ty1 Gag), Uniprot P08405, residues M259-N355 with I269F; source: E. coli BL21 (DE3), purified
B1 was tested, and the “stoichiometry N” value [1] was 2, the Kd [2] was 0.74 µM and the Kd [3] was 45.3 µM.

B2: p18m (p18m_AUG2), Ty1 Gag residues M259-N355 (domain or fragment, S. cerevisiae, UniProt P08405 259-355, looked up)
chain: B1 chain with F11I
notes: S. cerevisiae Ty1A (Ty1 Gag), Uniprot P08405, residues M259-N355, starting at the AUG2 methionine; also called WT p18m; source: E. coli BL21 (DE3), purified (Ni-NTA, gel filtration in Acetate Buffer)
For B2, the “stoichiometry N” value [1] was 2, the Kd [2] was 0.73 µM and the Kd [3] was 43.2 µM.

B3: p18m_AUG2-A273C (domain or fragment, S. cerevisiae, UniProt P08405 259-355, looked up)
chain: B1 chain with F11I, A15C
notes: S. cerevisiae Ty1A (Ty1 Gag), Uniprot P08405, residues M259-N355 with A273C; source: bacterially expressed (E. coli), purified
B3 was tested, and the “stoichiometry N” value [1] was 2.

B4: p18m-F323S (domain or fragment, S. cerevisiae, UniProt P08405 259-355, looked up)
chain: B1 chain with F11I, F65S
notes: S. cerevisiae Ty1A (Ty1 Gag), Uniprot P08405, with F323S; also called Dimer-2 interface-mutant p18m-F323S; source: E. coli BL21 (DE3), purified
In the case of B4, the “stoichiometry N” value [1] is reported as 2.

B5: p18m-A273V (p18m_AUG2-A273V), solution studies (domain or fragment, S. cerevisiae, UniProt P08405 259-355, looked up)
chain: B1 chain with F11I, A15V
notes: S. cerevisiae Ty1A (Ty1 Gag), Uniprot P08405, residues M259-N355 with A273V; Tag removal is described only for the crystallographic sample; source: E. coli BL21 (DE3), purified
In the case of B5, the “stoichiometry N” value [4] is reported as 2, the Kd [2] is reported as 0.34 µM and the Kd [3] is reported as 51.8 µM.

B6: Seleno-methionine p18m_AUG2 (crystallised) (domain or fragment, S. cerevisiae, UniProt P08405 259-355, looked up)
chain: B1 chain with F11I
modifications: seleno-methionine substituted
notes: S. cerevisiae Ty1A (Ty1 Gag), Uniprot P08405, residues M259-N355; also called Se-Met p18m_(AUG2); source: E. coli B834 (DE3) in seleno-methionine medium, purified (Ni-NTA, gel filtration in Acetate Buffer)
B6: binds [5].

B7: p18m_AUG1, Ty1 Gag residues M249-N355 (crystallised) (domain or fragment, S. cerevisiae, UniProt P08405 249-355, looked up)
chain: MKILSKSIEKMQSDTQEANDIVTLANLQYNGSTPADAFETKVTNIIDRLNNNGIHINNKVACQLIMRGLSGEYKFLRYTRHRHLNMTVAELFLDIHAIYEEQQGSRN
notes: S. cerevisiae Ty1A (Ty1 Gag), Uniprot P08405, residues M249-N355, starting at the AUG1 methionine; Residues D262 to Q351 are visible in the map; source: E. coli BL21 (DE3), purified (Ni-NTA, carboxypeptidase A digestion, gel filtration)
B7: binds [5].
